Results reported in patent publication EP0562624A2, “Stabilization of functional proteins” (Modrovich, Ivan E., priority 1992, dated 1993).

Assay: Stability of HRP in uric acid single reagent solution
Type: physicochemical
Details: Uric Acid SR Model
Description: As in Example 2 Horseradish Peroxidase (HRP) was dissolved in an aqueous base containing 50 mg/ml BSA and 10 mg/ml Tris with no pH adjustment. HRP concentration was 30 mg/ml.
EDAC and PSL solutions were formed as in Example 2 as in relative concentrations of 100 mg/ml and 20 mg/ml. The PSL solution was added in an amount of 0.14 ml per 0.5ml of HRP solution dropwise over an ice bath. This was followed by the addition of the EDAC solution in an amount of 0.05 ml per 0.5 ml of HRP solution. The mixture was stored at 4°C for 4 days and evaluated for the stability of HRP in a uric acid single reagent solution.
This is reported in Table 4 where the Control 4 is the unmodified horseradish peroxidase.

Example 4: Horseradish Peroxidase (HRP) stabilized with PSL and EDAC
%HRP of 4°C (1 day at 4°C): 100% | %HRP of 4°C (1 day at 41°C): 70% | %HRP of 4°C (3 days at 4°C): 100% | %HRP of 4°C (3 days at 41°C): 35%
